Measured values reported in US20210252150A1.

Columns and labels:
[1] = target: HA of A/Solomon Islands/03/2006 (H1N1) (influenza A virus (H1N1))
[2] = target: HA of A/Texas/36/1991 (H1N1) (influenza A virus (H1N1))
[3] = target: HA of A/Texas/50/2012 (H3N2) (influenza A virus (H3N2))

Row | Substance | EC50 [1] [µg/mL] | EC50 [2] [µg/mL] | EC50 [3] [µg/mL] | EC50 fold over wild-type rFluA-20 [1] [fold]
1 | rFluA-20 heavy chain mutant C101A (antibody) | 0.2 | 0.15 | 0.39 | –
2 | rFluA-20 light chain mutant N53A (antibody) | 0.05 | 0.04 | 0.09 | –
3 | rFluA-20 light chain mutant Q55A (antibody) | – | 0.23 | – | > 100
